Results as given in patent US7179464.

Key:
[1] = biological target: soluble human IL-5R α (shIL-5R α) (human) (UniProt Q01344); test: discussion of the ELISA results; assay not given
[2] = biological target: soluble human IL-5R α (shIL-5R α) (human) (UniProt Q01344); test: ELISA method 2: purified antibody on plate-coated shIL-5R α, anti-human IgG detection

Sequence of soluble human IL-5R α (shIL-5R α) (human) (Q01344 other isoform, or with tags, fused parts or gaps limits assumed, form in doubt): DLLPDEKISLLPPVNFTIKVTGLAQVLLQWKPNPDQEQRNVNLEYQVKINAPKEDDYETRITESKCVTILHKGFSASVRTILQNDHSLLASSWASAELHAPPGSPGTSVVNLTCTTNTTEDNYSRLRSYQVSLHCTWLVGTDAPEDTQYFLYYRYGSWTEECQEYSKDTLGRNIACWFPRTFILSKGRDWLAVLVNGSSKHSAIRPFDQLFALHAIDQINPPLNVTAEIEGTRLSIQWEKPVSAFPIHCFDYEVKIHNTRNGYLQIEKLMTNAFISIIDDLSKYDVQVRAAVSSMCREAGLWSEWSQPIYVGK

activity relative to KM1259 (fold of KM1259) [1]: 0.5
reactivity relative to KM1399 (fold of KM1399) [2]: 0.5
B1: anti-human IL-5R α chain human CDR-grafted antibody KM8397 (antibody, human IgG1, V domains shown)
VH: EVQLVQSGAEVKKPGASVKVSCKASGYTFTSYVIHWVRQAPGQGLEWMGYINPYNDGTKYNERFKGRVTITADTSTSTAYMELSSLRSEDTAVYYCAREGIRYYGLLGDYWGQGTLVTVSS
VL: DIQMTQSPSSLSASVGDRVTITCGTSEDIINYLNWYQQKPGKAPKLLIYHTSRLQSGVPSRFSGSGSGTDFTLTISSLQPEDFATYYCQQGYTLPYTFGQGTKVEIK
